First the molecules themselves.
B1: GLS3000 S27eA (antibody, name in Kabat numbering, V domains shown)
VH: QVQLVESGGGVVQPGRSLRLSCAASGFTFSNAWMHWVRQAPGKGLEWVAQIKAKSNNYATYYAESVKGRFTISRDDSKNSLYLQMNSLKTEDTAVYYCRYVHYGAYYGVDAWGQGTTVTVSS
VL: DIVMTQSPLSLPVTPGEPASISCRSSQSLVHANRNTYLHWYQQKPGQAPRLLIYKVSNRFSGVPDRFSGSGSGTDFTLKISRVEAEDVGVYYCGQGTQVPYTFGQGTKLEIK
notes: one-arm format as m2
B2: GLS3000 F55D (antibody, name in Kabat numbering, V domains shown)
VH: QVQLVESGGGVVQPGRSLRLSCAASGFTFSNAWMHWVRQAPGKGLEWVAQIKAKSNNYATYYAESVKGRFTISRDDSKNSLYLQMNSLKTEDTAVYYCRYVHYGAYYGVDAWGQGTTVTVSS
VL: DIVMTQSPLSLPVTPGEPASISCRSSQSLVHSNRNTYLHWYQQKPGQAPRLLIYKVSNRDSGVPDRFSGSGSGTDFTLKISRVEAEDVGVYYCGQGTQVPYTFGQGTKLEIK
notes: one-arm format as m2
B3: GLS3000 F55G (antibody, name in Kabat numbering, V domains shown)
VH: QVQLVESGGGVVQPGRSLRLSCAASGFTFSNAWMHWVRQAPGKGLEWVAQIKAKSNNYATYYAESVKGRFTISRDDSKNSLYLQMNSLKTEDTAVYYCRYVHYGAYYGVDAWGQGTTVTVSS
VL: DIVMTQSPLSLPVTPGEPASISCRSSQSLVHSNRNTYLHWYQQKPGQAPRLLIYKVSNRGSGVPDRFSGSGSGTDFTLKISRVEAEDVGVYYCGQGTQVPYTFGQGTKLEIK
notes: one-arm format as m2
B4: GLS3000 F55A (antibody, name in Kabat numbering, V domains shown)
VH: QVQLVESGGGVVQPGRSLRLSCAASGFTFSNAWMHWVRQAPGKGLEWVAQIKAKSNNYATYYAESVKGRFTISRDDSKNSLYLQMNSLKTEDTAVYYCRYVHYGAYYGVDAWGQGTTVTVSS
VL: DIVMTQSPLSLPVTPGEPASISCRSSQSLVHSNRNTYLHWYQQKPGQAPRLLIYKVSNRASGVPDRFSGSGSGTDFTLKISRVEAEDVGVYYCGQGTQVPYTFGQGTKLEIK
notes: one-arm format as m2
B5: GLS3000 F55K (antibody, name in Kabat numbering, V domains shown)
VH: QVQLVESGGGVVQPGRSLRLSCAASGFTFSNAWMHWVRQAPGKGLEWVAQIKAKSNNYATYYAESVKGRFTISRDDSKNSLYLQMNSLKTEDTAVYYCRYVHYGAYYGVDAWGQGTTVTVSS
VL: DIVMTQSPLSLPVTPGEPASISCRSSQSLVHSNRNTYLHWYQQKPGQAPRLLIYKVSNRKSGVPDRFSGSGSGTDFTLKISRVEAEDVGVYYCGQGTQVPYTFGQGTKLEIK
notes: one-arm format as m2
B6: GLS3000 F55H (antibody, name in Kabat numbering, V domains shown)
VH: QVQLVESGGGVVQPGRSLRLSCAASGFTFSNAWMHWVRQAPGKGLEWVAQIKAKSNNYATYYAESVKGRFTISRDDSKNSLYLQMNSLKTEDTAVYYCRYVHYGAYYGVDAWGQGTTVTVSS
VL: DIVMTQSPLSLPVTPGEPASISCRSSQSLVHSNRNTYLHWYQQKPGQAPRLLIYKVSNRHSGVPDRFSGSGSGTDFTLKISRVEAEDVGVYYCGQGTQVPYTFGQGTKLEIK
notes: one-arm format as m2
B7: GLS3000 F55I (antibody, name in Kabat numbering, V domains shown)
VH: QVQLVESGGGVVQPGRSLRLSCAASGFTFSNAWMHWVRQAPGKGLEWVAQIKAKSNNYATYYAESVKGRFTISRDDSKNSLYLQMNSLKTEDTAVYYCRYVHYGAYYGVDAWGQGTTVTVSS
VL: DIVMTQSPLSLPVTPGEPASISCRSSQSLVHSNRNTYLHWYQQKPGQAPRLLIYKVSNRISGVPDRFSGSGSGTDFTLKISRVEAEDVGVYYCGQGTQVPYTFGQGTKLEIK
notes: one-arm format as m2
B8: GLS3000 F55E (antibody, name in Kabat numbering, V domains shown)
VH: QVQLVESGGGVVQPGRSLRLSCAASGFTFSNAWMHWVRQAPGKGLEWVAQIKAKSNNYATYYAESVKGRFTISRDDSKNSLYLQMNSLKTEDTAVYYCRYVHYGAYYGVDAWGQGTTVTVSS
VL: DIVMTQSPLSLPVTPGEPASISCRSSQSLVHSNRNTYLHWYQQKPGQAPRLLIYKVSNRESGVPDRFSGSGSGTDFTLKISRVEAEDVGVYYCGQGTQVPYTFGQGTKLEIK
notes: one-arm format as m2

CD3ε homodimer protein, sequence (P07766 23-126 limits assumed): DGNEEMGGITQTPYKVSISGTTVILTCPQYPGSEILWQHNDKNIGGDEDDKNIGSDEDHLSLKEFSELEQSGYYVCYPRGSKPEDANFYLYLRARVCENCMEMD

This experiment addresses CD3ε homodimer protein (human, UniProt P07766 23-126, limits assumed). As to the kind of experiment: SPR, immobilized CD3ε homodimer.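 Further: biacore T200 surface plasmon resonance at 25 °C, antibody variants flowed as analytes over amine-coupled CD3ε homodimer on a CM4 chip, variant binding amount divided by that of GLS3000 antibody.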 For orientation: In SPR one partner is held on a chip, and binding of the other changes the refractive index at the surface.
Protocol: Each one-amino acid altered form constructed, expressed, and purified in the paragraph (6-2) was evaluated using Biacore T200 (GE Healthcare Japan Corp.). An appropriate amount of CD3ε homodimer protein was immobilized onto Sensor chip CM4 (GE Healthcare Japan Corp.) by the amine coupling method. Then, the antibody having an appropriate concentration was injected thereto as an analyte and allowed to interact with the CD3ε homodimer protein on the sensor chip. Then, the sensor chip was regenerated by the injection of 10 mmol/L glycine-HCl (pH 1.5). The assay was conducted at 25° C., and HBS-EP+ (GE Healthcare Japan Corp.) was used as a running buffer. […] Each parameter was calculated using Biacore T200 Evaluation Software (GE Healthcare Japan Corp.).
Specifically, when the amount of the GLS3000-containing antibody bound was defined as X and the amount of the L chain one-amino acid altered form bound was defined as Y, a value of Z (ratio of amounts bound)=Y/X was used.
Turning to B1, the “ratio of amounts bound (vs GLS3000)” value turned out to be 1.03.

With B2, the “ratio of amounts bound (vs GLS3000)” value is 0.65.

As to B3, the “ratio of amounts bound (vs GLS3000)” value stood at 1.31.

Consider B4, for which the “ratio of amounts bound (vs GLS3000)” value is 1.13.

As for B5, the “ratio of amounts bound (vs GLS3000)” value is 1.33.

For B6, the “ratio of amounts bound (vs GLS3000)” value came out at 0.94.

Turning to B7, the “ratio of amounts bound (vs GLS3000)” value is 0.82.

Consider B8, for which the “ratio of amounts bound (vs GLS3000)” value is 0.72.

Source of the values: US20220040297A1 (Chugai, published 2022).
